Experimental data reported in IntAct's records for PubMed 10677492.

B1: Dolichyl-diphosphooligosaccharide--protein glycosyltransferase subunit OST4 (Saccharomyces cerevisiae), Q99380 (parent)
chain: MISDEQLNSLAITFGIVMMTLIVIYHAVDSTMSPKN
partner: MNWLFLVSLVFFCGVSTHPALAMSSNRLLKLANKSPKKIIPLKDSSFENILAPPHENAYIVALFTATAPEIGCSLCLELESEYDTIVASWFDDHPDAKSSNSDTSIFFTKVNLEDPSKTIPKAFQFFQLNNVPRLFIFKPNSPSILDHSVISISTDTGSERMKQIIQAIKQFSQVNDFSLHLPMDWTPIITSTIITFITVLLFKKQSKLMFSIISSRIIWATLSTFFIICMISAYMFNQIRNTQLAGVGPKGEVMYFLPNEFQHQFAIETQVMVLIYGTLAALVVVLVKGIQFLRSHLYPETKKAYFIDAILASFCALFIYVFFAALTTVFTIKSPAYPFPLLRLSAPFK
B2: Dolichyl-diphosphooligosaccharide--protein glycosyltransferase subunit OST4 (Saccharomyces cerevisiae), Q99380 (parent)
chain: B1 chain
partner: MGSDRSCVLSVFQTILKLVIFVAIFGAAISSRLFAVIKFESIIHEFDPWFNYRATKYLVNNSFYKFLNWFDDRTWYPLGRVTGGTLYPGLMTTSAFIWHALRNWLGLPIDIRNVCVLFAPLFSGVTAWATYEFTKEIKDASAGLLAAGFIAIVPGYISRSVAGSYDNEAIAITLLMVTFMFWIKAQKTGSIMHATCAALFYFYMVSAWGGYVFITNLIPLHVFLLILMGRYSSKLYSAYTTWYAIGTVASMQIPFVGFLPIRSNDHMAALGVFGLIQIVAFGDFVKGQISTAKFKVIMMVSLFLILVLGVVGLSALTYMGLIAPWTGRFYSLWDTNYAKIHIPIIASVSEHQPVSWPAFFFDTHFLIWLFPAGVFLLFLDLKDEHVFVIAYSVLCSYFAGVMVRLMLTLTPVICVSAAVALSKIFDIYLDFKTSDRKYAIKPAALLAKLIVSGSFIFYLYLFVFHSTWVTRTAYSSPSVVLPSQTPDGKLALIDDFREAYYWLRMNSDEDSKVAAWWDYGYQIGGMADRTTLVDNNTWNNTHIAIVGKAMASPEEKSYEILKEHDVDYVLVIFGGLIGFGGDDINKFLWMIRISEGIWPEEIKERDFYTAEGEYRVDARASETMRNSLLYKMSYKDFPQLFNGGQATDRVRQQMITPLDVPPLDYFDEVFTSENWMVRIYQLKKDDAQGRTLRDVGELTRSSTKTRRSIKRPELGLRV

Variants of: B1
Settings: with ost3_yeast OST3, P48439

Variant	effect of a mutation on the interaction
M18K	disrupting interaction
L21K	disrupting interaction
T20K	disrupting interaction
M19K	disrupting interaction

Next, values leading:

effect of a mutation on the interaction	Variant
disrupting interaction	I24K
disrupting interaction	V23K

Variants of: B2
Settings: with stt3_yeast STT3, P39007

effect of a mutation on the interaction	Variant
disrupting interaction	M18K
disrupting interaction	I24K
disrupting interaction	L21K
